Assay results as given in patent US20070202116A1, “Treatment of micro-organism infection” (priority 2001, published 2007).

How the values were obtained:
EMRSA-15 = experiment: Data Set 2: Aurograb dose ranging study in infected mice; assay type: in vivo, S. aureus; details: for Kidney log cfu per gram of tissue / Liver log cfu per gram of tissue / Spleen log cfu per gram of tissue: 48 hours; for Reduction in kidney bacterial counts: Experiment 1
Procedure: Aims: Dose ranging study for use of Aurograb versus S. aureus strain EMRSA-15.
Dose range is determined by comparing cfu (expressed as the log of the cfu per gram of tissue) for different organs at different doses.
[…] All mice terminated at 48 hours for culture of kidney, liver and spleen to determine organ viability counts.
Results: expressed as log cfu per gram of tissue
Experiment 1: S. aureus (1.5×10^7 cfu): EMRSA-15 (Table 5)
Experiment 2: S. aureus (9×10^6 cfu): clinical isolate EMRSA-15—low dose Aurograb (Table 6)

human blood = experiment: Blood compatibility study (haemolysis); details: human blood, 37° C., 1 hour; 0.1 mg/ml
Procedure: This study was carried out by Biochemical Pharmacology department at Inveresk Research, Scotland, in order to assess the suitability of Aurograb for intravenous administration.
Blood samples were taken from healthy human volunteers, transferred to tubes containing Aurograb, Aurograb vehicle, saponin or saline and incubated at 37° C. for 1 hour. After centrifugation, the amount of haemoglobin in the supernatant was then assessed to determine haemolysis.

[1] = Storage stability and iv fluid compatibility of Aurograb; assay type: physicochemical
Procedure: The lyophilised drug is stored in glass vials at 4° C. in the dark. Overnight transport at ambient temperatures is acceptable. Avoid prolonged exposure to bright light or excessive humidity. No change in Aurograb activity after storage at 4° C. (3 months) has been observed.
After reconstitution with water, Aurograb must be stored at 4° C. and should be used within 14 hours.
Saline for iv use is compatible with reconstituted Aurograb (at a 50:50 dilution).

[2] = Experiment 1, 1.5×10^7 cfu EMRSA-15, Aurograb 0.2 mg/kg single iv dose
[3] = Experiment 1, 1.5×10^7 cfu EMRSA-15, Aurograb 1 mg/kg single iv dose
[4] = Experiment 1, 1.5×10^7 cfu EMRSA-15, Aurograb 2 mg/kg single iv dose
[5] = Experiment 2, 9×10^6 cfu clinical isolate EMRSA-15, Aurograb 0.2 mg/kg
[6] = Experiment 2, doses as low as 0.2 mg

B1: Aurograb: human genetic recombinant antibody (scFv with histidine tag, SEQ ID NO: 2) binding GrfA, a staphylococcal ABC transporter protein (protein)
scFv: MAKVQLLQSATEVKKPGASVKVSCKAYGYTFTDYGITWVRQAPGQGLEWMGWISAYNGYTNYAQKFQDRITMTTDASTSTAYMELRSLRPDDTAVLYCARDREDASLLRDGHWGQGTLVTVSSGGGGSGGGGSGGGGSGGGGSETTLTQSPGTLSLSPGERATLSCRASQIVSSSYLAWYQQKPGQAPRLLIYGASSRATGIPDRFSGSGSGTDFTLTISKLEPEDFAVYYCQHYGSSSPWTSRPRDQSDIKRAAALEHHHHHH
modifications: histidine tag; human single chain (scFv) recombinant antibody
EMRSA-15; [2]
  Kidney log cfu per gram of tissue: 8.5 ± 2.55 log cfu per gram of tissue
  Liver log cfu per gram of tissue: 6.61 ± 3.03 log cfu per gram of tissue
  Spleen log cfu per gram of tissue: 5.69 ± 1.16 log cfu per gram of tissue
EMRSA-15; [3]
  Kidney log cfu per gram of tissue: 8.7 ± 2.6 log cfu per gram of tissue
  Liver log cfu per gram of tissue: 5.40 ± 1.38 log cfu per gram of tissue
  Spleen log cfu per gram of tissue: 5.33 ± 1.21 log cfu per gram of tissue
EMRSA-15; [4]
  Kidney log cfu per gram of tissue: 7.62 ± 1.16 log cfu per gram of tissue
  Liver log cfu per gram of tissue: 5.22 ± 1.39 log cfu per gram of tissue
  Spleen log cfu per gram of tissue: 5.10 ± 1.29 log cfu per gram of tissue
EMRSA-15; highest dose (2.0 mg/kg)
  Reduction in kidney bacterial counts: 0.8 log
EMRSA-15; lower doses
  Reduction in kidney bacterial counts: no reduction
EMRSA-15; [5]
  Kidney log cfu per gram of tissue: 7.14 ± 1.28 log cfu per gram of tissue
  Liver log cfu per gram of tissue: 3.13 ± 0.44 log cfu per gram of tissue
  Spleen log cfu per gram of tissue: 3.40 ± 0.64 log cfu per gram of tissue
EMRSA-15; [6]
  Bacterial killing in the liver and spleen: evidence of bacterial killing
  Reduction in viable staphylococci in the kidneys: no reduction
EMRSA-15; single dose of 2.0 mg/kg in mice
  Drop in liver and spleen counts: approximately 2.0 log
Human blood
  Haemolysis classification (ASTM F756-93): non-haemolytic
[1]; left at room temperature
  Activity after reconstitution with water: slowly deteriorate
[1]; lyophilised drug, 4° C., 3 months
  Change in activity after storage: No change
[1]; reconstituted Aurograb, 50:50 dilution
  Compatibility with saline for iv use: compatible
[1]; reconstituted Aurograb, reduction in ELISA activity
  Compatibility with 20% glucose and sodium bicarbonate buffer: less compatible
